Laboratory results taken from patent US20110038790A1 (ONCLAVE THERAPEUTICS, published 2011).
Changes are numbered by the printed parent chain.

T1: peptide 64, CGGAEDT
T1 peptide: CGGAEDT

T2: peptide 40, CGGAEDS
T2 peptide: CGGAEDS

T3: peptide 67, CGGHEDA
T3 peptide: CGGHEDA

B1: murine AA amyloid (AA fibrils, amyloid enhancing factor extract or tissue deposits) (other, mouse, UniProt P05367 20-94, looked up)
chain: GFFSFIGEAFQGAGDMWRAYTDMKEAGWKDGDKYFHARGNYDAAQRGPGGVWAAEKISDARESFQEFFGRGHEDT
notes: Heterogeneous tissue-derived amyloid; also called Mouse AA (AEF); murine AA fibrils
B2: murine monoclonal antibody 2A4 (antibody, V domains shown)
VH: EVQLVESGGRLVQPKGSLKLSCAASGFTFNTYAMYWIRQAPGKGLEWVARIRSKSNNYAIYYADSVKDRFTIFRDDSQSMLYLQMNNLKTEDTAMYYCVRPYSDSFAYWGQGTLVTVSA
VL: DVVMTQTPLSLPVSLGDQASISCRSSQSLVHSTGNTYLHWYLQKPGQSPKLLIYKVSNRFSGVPDRFSGSGSGTYFTLKISRVEAEDLGVYFCSQSTHVPFTFGGGTKLEIK
notes: Mouse IgG2b kappa; Used as hybridoma culture supernatant or protein A-purified mAb; also called mAb 2A4; 2A4.20.44.77
B3: murine monoclonal antibody 8G9 (antibody, mouse IgG2b, V domains shown)
VH: B2 VH
VL: B2 VL
notes: Mouse IgG2b kappa; also called mAb 8G9; 8G9.3.4.51.22
B4: murine monoclonal antibody 7D8 (antibody, mouse IgG2b, V domains shown)
VH: B2 VH
VL: B2 VL with Q27L
notes: Mouse IgG2b kappa; also called mAb 7D8; 7D8.29.19.47
B5: human AA amyloid (renal AA amyloid extract or tissue deposits) (other, UniProt P0DJI8 19-94, looked up)
chain: RSFFSFLGEAFDGARDMWRAYSDMREANYIGSDKYFHARGNYDAAKRGPGGAWAAEVITDARENIQRFFGHGAEDS
notes: Heterogeneous tissue-derived amyloid; also called human renal AA amyloid extract; human AA amyloid extract
B6: peptide 39, CGGHEDT (immunogen peptide EPRB-39) (peptide)
peptide: CGGHEDT
notes: also called p39; p#39
B7: peptide 41, GHEDTIADQE (peptide)
peptide: GHEDTIADQE
notes: also called p41; p#41

Assays:
[1] = molecular target: B4; test: competition ELISA: mouse AA (AEF) in solution against adsorbed human AA amyloid extract, mAb 7D8
Protocol: (§1) To determine the effect, if any, of potential denaturation when adsorbed to the surface of the microtiter well, the reactivity of the 2A4, 8G9 and […] was evaluated using a competition ELISA in which murine or human AA amyloid extract was used as a soluble competitor for the interaction of the mAbs with surface-bound AA extract.
(§2) In general, the murine AA (AEF) extract was a better competitor than the human AA (Table 6).

[2] = molecular target: B2; test: competition ELISA: mouse AA (AEF) in solution against adsorbed human AA amyloid extract, mAb 2A4
Protocol: as §1, §2

[3] = molecular target: B3; test: competition ELISA: mouse AA (AEF) in solution against adsorbed human AA amyloid extract, mAb 8G9
Protocol: as §1, §2

[4] = molecular target: B6; test: ELISA, purified mAb on adsorbed peptide 39
[5] = molecular target: B1; test: ELISA, purified mAb on adsorbed mouse AA (AEF)
Protocol: (§3) Protein Mr markers (Std) are, form top to bottom: 176, 119, 75, 49, 39, 25 and 19 kDa. The interaction of the purified mAbs with immunizing peptide p#39, control peptide (p#41), murine and human AA extracts were determined by ELISA as described above.
(§4) In contrast, even at the highest concentration of mAb used (100 nM) there was little detectable binding to the p#41 peptide (FIG. 33—Each point represents the mean±SE, (n=3 at each concentration)). […] The calculated EC50 values for the mAbs binding to mouse AA extract were essentially identical to those obtained when the p#39 peptide was used as the substrate (FIG. 34; Table 5). […] Because the EC50 value for 7D8 mAb binding was the lowest of the 3 antibodies tested, Applicants selected this reagent for in vivo co-localization and imaging studies. The 2 amino acid substitutions in the human SAA sequence with respect to the murine protein affected the EC50 values.

peptide 41, GHEDTIADQE = molecular target: B7; test: ELISA, purified mAb on adsorbed peptide 41
Protocol: as §3, §4

[6] = molecular target: B1; test: ELISA, hybridoma culture supernatant on murine AA (AEF)
Source text: The interaction of 2A4, 8G9 and 7D8 mAbs with AA amyloid was initially tested by ELISA and the data, given in FIG. 31, analyzed using SigmaPlot (SPSS Inc.). Each point represents the mean±SE (n=3). A culture supernatant from an irrelevant hybridoma was used as a control (Ctrl Culture Sup). […] (In addition, the immunohistochemical reactivity of the day 1 material was greater than the day 2 samples). […] Because of the low signal and high variability found with the culture supernatants and to determine more accurately the relative binding affinity of the mAbs for murine and human AA amyloid fibrils (as well as to provide material for in vivo biodistribution studies) it was necessary to isolate the mAbs by protein A affinity chromatography. The purity of the isolated mAbs was established SDS-PAGE using 10% acrylamide gels under reducing and non-reducing conditions (FIG. 32). Samples in lanes 1-4 treated with mercaptoethanol, lanes 5-9 without. Gel was stained with Coomassie blue: mAb 8G9, lanes 1 and 6; mAb 2A4, lanes 2 and 7; mAb 7D8, lanes 3 and 8; SP2/0 control supernatant, lanes 4 and 9; blank, lane 5. Protein Mr markers (Std) are, form top to bottom: 176, 119, 75, 49, 39, 25 and 19 kDa. The interaction of the purified mAbs with immunizing peptide p#39, control peptide (p#41), murine and human AA extracts were determined by ELISA as described above.

[7] = molecular target: B5; test: ELISA, purified mAb on adsorbed human AA amyloid extract
Protocol: as §3, §4

peptide 64, CGGAEDT = molecular target: T1, peptide 64, CGGAEDT; test: BIAcore analysis of peptide binding
peptide 40, CGGAEDS = molecular target: T2, peptide 40, CGGAEDS; test: BIAcore analysis of peptide binding
peptide 67, CGGHEDA = molecular target: T3, peptide 67, CGGHEDA; test: BIAcore analysis of peptide binding
[8] = molecular target: B3; test: competition ELISA: human AA amyloid in solution against adsorbed mouse AA (AEF), mAb 8G9
Protocol: as §1, §2

[9] = molecular target: B4; test: competition ELISA: human AA amyloid in solution against adsorbed mouse AA (AEF), mAb 7D8
Protocol: as §1, §2

[10] = molecular target: B2; test: competition ELISA: human AA amyloid in solution against adsorbed mouse AA (AEF), mAb 2A4
Protocol: as §1, §2

[11] = molecular target: B4; test: SPR competition, 7D8 with p39 at 1 µg/mL over immobilized Vλ6 Wil fibrils
[12] = molecular target: B3; test: immunohistochemistry with peptide inhibition, human ovarian tissue
[13] = molecular target: B2; test: immunohistochemistry, supernatant (1:25) preincubated with peptide
[14] = molecular target: B2; test: immunohistochemistry, preincubation of 2A4 supernatant with peptide before staining murine AA amyloid
Source text: The reactivity of supernatants from hybridomas expressing antibodies 2A4, 8G9 and 7D8 to murine AA splenic and hepatic amyloid deposits (the principal sites of amyloid deposition) was documented immunohistochemically. For these studies, sections of tissue harvested from a TRIAD mouse with extensive AA amyloid in the liver and spleen (as evidenced by green birefringent Congophilic deposits) were stained with the mAb-containing supernatants. All 3 bound to the hepatic and splenic amyloid. In contrast, there was no reactivity with culture supernatants derived from irrelevant hybridomas. The capability of the amyloid using 2A4, 8G9 and 7D8 to immunostain amyloid in fresh (unfixed), OCT-embedded murine liver and spleen was tested. There was evidence that the mAbs retained their ability to bind AA amyloid in the hepatic sinusoid. In addition, the antibody reactivity with splenic tissue was easier to interpret, and the perifollicular amyloid was intensely immunostained. […] In contrast, the p#41 peptide was ineffective.

Binder: B1
IC50 [1]: 26.8 µg/mL | IC50 [2]: 14.7 µg/mL | IC50 [3]: 17.3 µg/mL

Binder: B2
EC50 [4]: 3.4 nM | EC50 [5]: 4.09 nM | EC50 (peptide 41, GHEDTIADQE): > 100 nM | dilution of culture supernatant after which reactivity is absent [6]: ~64 dilution factor (1:x) | EC50 [7]: 26.4 nM | binding result (peptide 64, CGGAEDT): binds | binding result (peptide 40, CGGAEDS): binds | binding result (peptide 67, CGGHEDA): binds

Binder: B3
EC50 [4]: 4 nM | EC50 [5]: 5.64 nM | EC50 (peptide 41, GHEDTIADQE): > 100 nM | dilution of culture supernatant after which reactivity is absent [6]: ~64 dilution factor (1:x) | EC50 [7]: 31.7 nM

Binder: B4
EC50 [4]: 2.3 nM | EC50 [5]: 1.84 nM | EC50 (peptide 41, GHEDTIADQE): > 100 nM | dilution of culture supernatant after which reactivity is absent [6]: ~64 dilution factor (1:x) | EC50 [7]: 13.3 nM | binding result (peptide 64, CGGAEDT): binds | binding result (peptide 40, CGGAEDS): binds | binding result (peptide 67, CGGHEDA): binds

Binder: B5
IC50 [8]: > 120 µg/mL | IC50 [9]: > 881 µg/mL | IC50 [10]: > 212 µg/mL

Binder: B6
fold decrease in the extent of binding of 7D8 to Vλ6 Wil fibrils [11]: > 2 fold | binding result [12]: binds | binding result [13]: binds

Binder: B7
binding result [14]: no binding (tested: 50 µg/mL)
